Results as given in the RNAGym collection of RNA variant scans (doi:10.1093/molbev/msab373).

B1: Azoarcus group I ribozyme (parent)
chain: GUGCCUUGCGCCGGGAAACCACGCAAGGGAUGGUGUCAAAUUCGGCGAAACCUAAGCGCCCGCCCGGGCGUAUGGCAACGCCGAGCCAAGCUUCGGCGCCUGCGCCGAUGAAGGUGUAGAGACUAGACGGCACCCACCUAAGGCAAACGCUAUGGUGAAGGCAUAGUCCAGGGAGUGGCGAAAGUCACACAAACCGG

Variants of: B1
Assay: reverse-splicing fitness (ratio to wild type); higher = more active; in vitro selection; Mg2+ level not given
How it was run: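 An in vitro group I ribozyme library with randomized positions was T7-transcribed and gel-purified. In triplicate, 10 pmol RNA in EPPS pH 7.5 was reacted with 50 pmoles of a 30-nt RNA substrate for 1 h at 37 °C across several added MgCl2 levels (1–48 mM), then stopped with EDTA. Products were reverse transcribed from a substrate-complementary primer, PCR-amplified and sequenced (HiSeq 4000). Fitness is a variant's read proportion after selection over that before, normalised to wild type.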

Variant | reverse-splicing fitness
GUGCCUUGCGCCGGGAAACCACGCAAGGGAUGGUGUCAAAUUCGGCGAAACCUAAGCGCCCGCCCGGGCGUAUGGCAACGCGGAGCCAAGCUUCGGCGCCUGCGCCGAUGCAGGUGUAGCGACUAGACGGCACCCACCUAAGGCUAACGUUAUGGUGAAGGCAUAGUCCAGGGAGCGGCGAAAGUCACACAAACCGG | 0.02
GUGCCUUGCGCCGGGAAACCACGCAAGGGAUGGUGUCAAAUUCGGCGAAACCUAAGCGCCCGCCCGGGCGUAUGGCAACGCGGAGCCAAGCUUCGGCGCCUGCGCCGAUGCAGGUGUAGCGACUAGACGGCACCCACCUAAGGCUAACGUUAUGGUGAAGGCAUAGUCCAGGGAGAGGCGAAAGUCACACAAACCGG | 0.0132
GUGCCUUGCGCCGGGAAACCACGCAAGGGAUGGUGUCAAAUUCGGCGAAACCUAAGCGCCCGCCCGGGCGUAUGGCAACGCGGAGCCAAGCUUCGGCGCCUGCGCCGAUGCAGGUGUAGCGACUAGACGGCACCCACCUAAGGCUAACGUUAUGGUGAAGGCAUAGUCCAGGGAGGGGCGAAAGUCACACAAACCGG | 0.00688
GUGCCUUGCGCCGGGAAACCACGCAAGGGAUGGUGUCAAAUUCGGCGAAACCUAAGCGCCCGCCCGGGCGUAUGGCAACGCGGAGCCAAGCUUCGGCGCCUGCGCCGAUGCAGGUGUAGCGACUAGACGGCACCCACCUAAGGCUAACGUUAUGGUGAAGGCAUAGUCUAGGGAGUGGCGAAAGUCACACAAACCGG | 0.0116
GUGCCUUGCGCCGGGAAACCACGCAAGGGAUGGUGUCAAAUUCGGCGAAACCUAAGCGCCCGCCCGGGCGUAUGGCAACGCGGAGCCAAGCUUCGGCGCCUGCGCCGAUGCAGGUGUAGCGACUAGACGGCACCCACCUAAGGCUAACGUUAUGGUGAAGGCAUAGUCAAGGGAGUGGCGAAAGUCACACAAACCGG | 0.0102
GUGCCUUGCGCCGGGAAACCACGCAAGGGAUGGUGUCAAAUUCGGCGAAACCUAAGCGCCCGCCCGGGCGUAUGGCAACGCGGAGCCAAGCUUCGGCGCCUGCGCCGAUGCAGGUGUAGCGACUAGACGGCACCCACCUAAGGCUAACGUUAUGGUGAAGGCAUAGUCGAGGGAGUGGCGAAAGUCACACAAACCGG | 0.00788
GUGCCUUGCGCCGGGAAACCACGCAAGGGAUGGUGUCAAAUUCGGCGAAACCUAAGCGCCCGCCCGGGCGUAUGGCAACGCGGAGCCAAGCUUCGGCGCCUGCGCCGAUGCAGGUGUAGCGACUAGACGGCACCCACCUAAGGCUAACGCUAUGGUGAAGGCAUAGUCCAGGGAGGGGCGAAAGUCACACAAACCGG | 0.00884
GUGCCUUGCGCCGGGAAACCACGCAAGGGAUGGUGUCAAAUUCGGCGAAACCUAAGCGCCCGCCCGGGCGUAUGGCAACGCGGAGCCAAGCUUCGGCGCCUGCGCCGAUGCAGGUGUAGCGACUAGACGGCACCCACCUAAGGCUAACGCUAUGGUGAAGGCAUAGUCCAGGGAGAGGCGAAAGUCACACAAACCGG | 0.0196
GUGCCUUGCGCCGGGAAACCACGCAAGGGAUGGUGUCAAAUUCGGCGAAACCUAAGCGCCCGCCCGGGCGUAUGGCAACGCGGAGCCAAGCUUCGGCGCCUGCGCCGAUGCAGGUGUAGCGACUAGACGGCACCCACCUAAGGCUAACGCUAUGGUGAAGGCAUAGUCCAGGGAGCGGCGAAAGUCACACAAACCGG | 0.0239
GUGCCUUGCGCCGGGAAACCACGCAAGGGAUGGUGUCAAAUUCGGCGAAACCUAAGCGCCCGCCCGGGCGUAUGGCAACGCGGAGCCAAGCUUCGGCGCCUGCGCCGAUGCAGGUGUAGCGACUAGACGGCACCCACCUAAGGCUAACGCUAUGGUGAAGGCAUAGUCUAGGGAGUGGCGAAAGUCACACAAACCGG | 0.0143
GUGCCUUGCGCCGGGAAACCACGCAAGGGAUGGUGUCAAAUUCGGCGAAACCUAAGCGCCCGCCCGGGCGUAUGGCAACGCGGAGCCAAGCUUCGGCGCCUGCGCCGAUGCAGGUGUAGCGACUAGACGGCACCCACCUAAGGCUAACGCUAUGGUGAAGGCAUAGUCAAGGGAGUGGCGAAAGUCACACAAACCGG | 0.00731
GUGCCUUGCGCCGGGAAACCACGCAAGGGAUGGUGUCAAAUUCGGCGAAACCUAAGCGCCCGCCCGGGCGUAUGGCAACGCGGAGCCAAGCUUCGGCGCCUGCGCCGAUGCAGGUGUAGCGACUAGACGGCACCCACCUAAGGCUAACGCUAUGGUGAAGGCAUAGUCGAGGGAGUGGCGAAAGUCACACAAACCGG | 0.00877
GUGCCUUGCGCCGGGAAACCACGCAAGGGAUGGUGUCAAAUUCGGCGAAACCUAAGCGCCCGCCCGGGCGUAUGGCAACGCGGAGCCAAGCUUCGGCGCCUGCGCCGAUGCAGGUGUAGCGACUAGACGGCACCCACCUAAGGCUAACGCUAUGGUGAAGGCAUAGUCGAGGGAGAGGCGAAAGUCACACAAACCGG | 0.0141
GUGCCUUGCGCCGGGAAACCACGCAAGGGAUGGUGUCAAAUUCGGCGAAACCUAAGCGCCCGCCCGGGCGUAUGGCAACGCGGAGCCAAGCUUCGGCGCCUGCGCCGAUGCAGGUGUAGCGACUAGACGGCACCCACCUAAGGCUAACGCUAUGGUGAAGGCAUAGUCGAGGGAGGGGCGAAAGUCACACAAACCGG | 0.00713
GUGCCUUGCGCCGGGAAACCACGCAAGGGAUGGUGUCAAAUUCGGCGAAACCUAAGCGCCCGCCCGGGCGUAUGGCAACGCGGAGCCAAGCUUCGGCGCCUGCGCCGAUGCAGGUGUAGCGACUAGACGGCACCCACCUAAGGCUAACGCUAUGGUGAAGGCAUAGUCGAGGGAGCGGCGAAAGUCACACAAACCGG | 0.0177
